We go through nine molecules from EP4545563A1 (Foreseen Technology (Beijing) Co., Ltd., dated 2024).

Positions count from the first letter of the chain named.

Sequences and labels used below:
T1: ITGA2-His (human, UniProt P17301 30-1132, limits assumed)
T1 construct: also called ITGA2 protein; not shown: His tag
T1 sequence (looked up): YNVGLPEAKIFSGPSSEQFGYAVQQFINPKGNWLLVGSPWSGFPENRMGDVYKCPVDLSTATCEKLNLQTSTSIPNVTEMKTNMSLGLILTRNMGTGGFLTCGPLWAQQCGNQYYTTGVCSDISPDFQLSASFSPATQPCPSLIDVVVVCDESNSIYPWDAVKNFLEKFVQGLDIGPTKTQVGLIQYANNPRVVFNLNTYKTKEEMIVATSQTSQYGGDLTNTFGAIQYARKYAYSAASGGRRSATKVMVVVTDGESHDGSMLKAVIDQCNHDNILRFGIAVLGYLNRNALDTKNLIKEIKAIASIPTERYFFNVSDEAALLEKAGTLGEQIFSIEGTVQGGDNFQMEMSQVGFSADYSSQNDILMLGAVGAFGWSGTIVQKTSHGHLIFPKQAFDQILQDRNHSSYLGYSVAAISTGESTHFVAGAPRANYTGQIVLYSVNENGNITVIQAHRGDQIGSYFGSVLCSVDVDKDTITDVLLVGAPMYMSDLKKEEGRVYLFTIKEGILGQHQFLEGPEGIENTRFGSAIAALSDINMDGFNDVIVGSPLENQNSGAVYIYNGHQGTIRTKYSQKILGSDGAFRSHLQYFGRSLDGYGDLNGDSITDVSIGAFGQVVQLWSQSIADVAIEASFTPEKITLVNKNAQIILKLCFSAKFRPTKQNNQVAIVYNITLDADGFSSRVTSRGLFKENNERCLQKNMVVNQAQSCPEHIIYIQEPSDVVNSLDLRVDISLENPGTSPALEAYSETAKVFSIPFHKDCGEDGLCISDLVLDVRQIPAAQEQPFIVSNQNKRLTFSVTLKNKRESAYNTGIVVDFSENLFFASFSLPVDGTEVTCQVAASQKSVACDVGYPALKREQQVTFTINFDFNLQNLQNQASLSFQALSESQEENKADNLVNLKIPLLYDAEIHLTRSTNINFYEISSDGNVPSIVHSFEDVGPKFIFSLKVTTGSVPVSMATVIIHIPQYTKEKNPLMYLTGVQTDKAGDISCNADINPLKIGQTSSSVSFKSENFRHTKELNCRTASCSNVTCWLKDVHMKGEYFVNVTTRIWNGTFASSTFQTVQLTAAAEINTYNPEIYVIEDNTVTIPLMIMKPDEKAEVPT

T2: ITGA2 protein on the surface of human tumor cells (HuCCT1, A431) (human, UniProt P17301 30-1181)
T2 construct: whole, on cells; Endogenously expressed on the cell lines; the cell line of each entry is named under assay or readout; also called Integrin alpha-2; ITGA2-positive HuCCT1 cells
T2 sequence (looked up): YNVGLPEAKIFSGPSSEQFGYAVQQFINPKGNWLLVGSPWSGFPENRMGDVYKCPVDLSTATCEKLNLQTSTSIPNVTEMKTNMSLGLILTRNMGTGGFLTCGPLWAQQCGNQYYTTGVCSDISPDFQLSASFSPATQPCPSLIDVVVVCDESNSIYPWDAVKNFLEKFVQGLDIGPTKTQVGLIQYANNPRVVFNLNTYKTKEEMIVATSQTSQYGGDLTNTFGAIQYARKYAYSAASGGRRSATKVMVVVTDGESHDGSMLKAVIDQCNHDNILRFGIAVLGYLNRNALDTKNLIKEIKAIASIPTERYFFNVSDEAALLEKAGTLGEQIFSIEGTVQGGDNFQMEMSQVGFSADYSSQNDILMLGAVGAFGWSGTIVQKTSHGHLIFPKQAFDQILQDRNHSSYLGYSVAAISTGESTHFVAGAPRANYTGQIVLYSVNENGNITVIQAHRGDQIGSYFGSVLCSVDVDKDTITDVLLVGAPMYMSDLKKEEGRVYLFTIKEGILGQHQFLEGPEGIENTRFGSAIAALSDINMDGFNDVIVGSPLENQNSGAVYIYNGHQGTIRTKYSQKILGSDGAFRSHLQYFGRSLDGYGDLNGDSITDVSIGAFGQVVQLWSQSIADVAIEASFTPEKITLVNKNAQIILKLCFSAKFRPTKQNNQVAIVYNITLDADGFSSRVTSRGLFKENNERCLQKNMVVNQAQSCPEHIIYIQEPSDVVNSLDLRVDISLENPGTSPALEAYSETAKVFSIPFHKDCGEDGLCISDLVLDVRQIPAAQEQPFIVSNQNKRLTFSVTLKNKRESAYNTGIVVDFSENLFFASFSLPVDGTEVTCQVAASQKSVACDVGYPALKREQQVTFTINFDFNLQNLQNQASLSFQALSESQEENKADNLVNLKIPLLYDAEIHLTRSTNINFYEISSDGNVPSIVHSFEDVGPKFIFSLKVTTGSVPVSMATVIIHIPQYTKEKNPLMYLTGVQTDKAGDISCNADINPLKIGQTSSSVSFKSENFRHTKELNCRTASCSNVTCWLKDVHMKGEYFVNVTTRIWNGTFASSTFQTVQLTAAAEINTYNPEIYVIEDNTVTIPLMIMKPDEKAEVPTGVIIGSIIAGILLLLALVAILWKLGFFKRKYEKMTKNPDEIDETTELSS

B1: Humanized antibody FS002-A72 (antibody, human IgG1, kappa, V domains shown)
VH: QVQLVDSGGGLVQPGGSLRLSCVASGFAFSNYEMNWVRQAPGKGLEWVSYISSSSSYTNYADSVKGRFTISRDNAKNSLYLQMNSLRAEDTAVYYCARAQVRDAFDIWGQGTTVTVSS
VL: IVMTQSPVTLSVSPGDSATLSCRASQSVDKNLAWYQQKTGQAPRLLIYGAATRATGIPARFSGSGSGTEFTLTISSLRSEDFAVYYCQQYRNWPWTFGLGTKVEIKR
notes: IgG1 heavy chain, kappa light chain
B2: Humanized antibody FS002-A66 (antibody, human IgG1, kappa, V domains shown)
VH: EVQLVESGGGVVQPGRSLRLSCAASGFTFSSYAMHWVRQAPGKGLEWVAVISYDGSNKYYVDSVKGRFTISRDNSKNTLYLQMNSLRAEDTAVYYCARDRITYLDYYYYGMDVWGQGTTVTVSS
VL: EIVLTQSPAILSLSPGERATLSCRASQSVSEYLAWYQQKPGQAPRLLIYDISNRATGIPARFSGSGSETDFTLTISSLEPEDFAVYYCQQRRTWPLTFGPGTKVDIKR
notes: as for B1
B3: Humanized antibody FS002-A5 (antibody, human IgG1, kappa, V domains shown)
VH: QVQLQDSGPGLVKPSQTLSLTCTVSGGSISSGGYYWSWIRQHPGKGLEWIGYIYYSGSTYYNPSLKSRVTISVDTSKNQFSLKLSSVTAADTAVYYCARVPVPLVGAFDIWGQGTMVTVSS
VL: EIVLTQSPATLSLSPGERATLSCRASQSVSSNLGWYQQKPGQAPSLLIYGASNRATGIPARFSGSGSGTDFTLTISSLEPEDFAVYYCQQRDTWPLTFGGGTKVEIKR
notes: as for B1
B4: Humanized antibody FS002-A36 (antibody, human IgG1, kappa, V domains shown)
VH: QVQLQESGPGLVKPSQTLSLTCTVSGGSISSGGYYWSWIRQHPGKGLEWIGYIYYSGSTYYNPSLKSRVTISVDTSKNQFSLKLSSVTAADTAVYYCARVRLLGGGFDIWGQGTTVTVSS
VL: B2 VL with I10T, E31T, I51T, N53I, E68G, R92S, T93N, P100G, D105E
notes: as for B1
B5: Humanized antibody FS002-B27 (antibody, human IgG1, kappa, V domains shown)
VH: QVQLVQSGAEVKKPGSSVKVSCKASGGTFSSYAISWVRQAPGQGLEWMGRIIPILGIANYAQKFQGRVTITADKSTSTAYMELSSLRSEDTAVYYCARAEGSSWYYFDYWGQGTLVTVSS
VL: NIQLTQSPSSVSASVGDRVTITCRASQGFSRWLAWYQQKPGKAPKLLIYGASSLQSGVPSRFSGSGSGTDFTLTISSLQPEDFATYYCQQANSFPLTFGGGTKLEIKR
notes: as for B1
B6: Humanized antibody FS002-C11 (antibody, human IgG1, kappa, V domains shown)
VH: RLQLQESGPRLVKPSETLSLTCSVSGGSISSRNHYWAWIRQPPGKGLEWIGYIYYSGSTYYNPSLKSRVTISVDTSKNQFSLKLSSVTAADTAVYYCARVGLLLRDFDYWGQGTLVTVSS
VL: DIQMIQSPSSVSASVGDRVTITCRASQGISNSLAWYQHKPGTTPKLLIYAASSLQGGVPSRFSGSSSETDFTLTISSLQPEDFATYYCQQANSFPITFGQGTRLDIKR
notes: as for B1
B7: FS002-A1-vc-MMAE (antibody, V domains shown)
VH: QVQLVQSGAEVKKPGASVKVSCKASGYTFTSYYMHWVRQAPGQGLEWMGIINPSGGSTSYAQKFQGRVTMTRDTSTSTVYMELSSLRSEDTAVYYCARDISGSYQTDAFDIWGQGTMVTVSS
VL: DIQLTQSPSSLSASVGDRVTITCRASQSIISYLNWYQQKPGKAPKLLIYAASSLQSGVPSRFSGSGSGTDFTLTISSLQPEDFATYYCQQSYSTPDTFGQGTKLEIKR
modifications: vc-MMAE (mc-vc-PAB-MMAE) linker-payload conjugated after TCEP reduction, DAR 3.4 for the whole antibody; sites not stated
B8: FS002-A36-vc-MMAE (antibody, human IgG1, kappa, V domains shown)
VH: B4 VH
VL: B2 VL with I10T, E31T, I51T, N53I, E68G, R92S, T93N, P100G, D105E
modifications: vc-MMAE (mc-vc-PAB-MMAE) linker-payload conjugated after TCEP reduction, DAR 3.8 for the whole antibody; sites not stated
B9: FS002-A15-vc-MMAE (antibody, human IgG1, kappa, V domains shown)
VH: RLQLQESGPGLVKPSQTLSLTCTVSGGSISSGGYYWSWIRQHPGKGLEWIGYIYYSGSTYYNPSLKSRVTISVDTSKNQFSLKLSSVTAADTAVYYCARATIYGYFDYWGQGTLVTVSS
VL: EIVLTQSPATLPLSPGERATLSCRASQSVGFYLAWYQQKPGQPPRLLFYDASKRATGIPARFSASGSGTDFTLTISGLEPEDFAVYYCQHRISWPLTFGQGTKVEVKR
modifications: vc-MMAE (mc-vc-PAB-MMAE) linker-payload conjugated after TCEP reduction, DAR 2.9 for the whole antibody; sites not stated

In the first assay the target is T1, ITGA2-His. In words: ELISA, plate coated with 2 ug/mL ITGA2-His, anti-human IgG-Fc-HRP detection. A general note: In an ELISA, binding on a coated surface is turned into a signal by an enzyme label.
The term EC50 denotes the concentration at which the effect is half-maximal. B1 returned an EC50 of 0.259 nM.

B2 returned an EC50 of 0.031 nM.

B3 had an EC50 of 0.032 nM.

In turn, B4 gave an EC50 of 0.022 nM. The EC50 values of the last two molecules are within 1.5-fold of each other.

For B5, the EC50 was 0.571 nM. Compared with the last molecule, the EC50 is about 26-fold higher.

Regarding B6, a half-maximal effect (EC50) was put at 0.035 nM.

The next assay has as its target T2, ITGA2 protein on the surface of human …. The assay is described as follows: flow cytometry on HuCCT1 cells, goat anti-human IgG (H+L) secondary antibody. A general note: In flow cytometry, cells or beads pass a laser one at a time.
B1: a half-maximal response (EC50) required 17.2 nM.

Turning to B2, the EC50 amounted to 2.35 nM. This EC50 lies about 7.3-fold lower than the previous one.

As for B3, the EC50 was 1.27 nM.

Take B4: the EC50 worked out at 0.793 nM.

The molecule B5 had an EC50 of 2.75 nM.

The molecule B6 gave an EC50 of 0.747 nM.

For another assay the target is unchanged. In words: cell-based or functional assay.
Turning to B7, the “A431 cell killing IC50” value was 0.14 nM and the “HuCC-T1 cell killing IC50” value was 0.14 nM.

For B8, the “A431 cell killing IC50” value came to 0.02 nM and the “HuCC-T1 cell killing IC50” value turned out to be 0.08 nM.

As for B9, the “A431 cell killing IC50” value worked out at 0.2 nM and the “HuCC-T1 cell killing IC50” value stood at 0.2 nM.
